Data from patent US20230025360A1, “PROCESSES FOR GENERATING SUPERIOR ANTI-TUMOR T-CELL EFFECTOR AND MEMORY CELLS” (MUSC Foundation for Research Development, priority 2016, published 2023).

How the values were obtained:
Splenic T cells [1] = assay: Splenic T cells activated with anti-CD3/28 in presence of α-KG; type: cell-based, C57BL/6 mouse; conditions: α-KG pretreatment for three days
Method: Splenic T cells from C57BL/6 mouse were activated with anti-CD3/28 (each 2 μg/ml) either in absence or presence of α-KG for three days, after which: (FIG. 10A) Glucose uptake was determined using 2NBDG, and (FIG. 10B) Tscm phenotype was evaluated using CD62L and CD44 cell surface expression. N=2.

Pmel T cells = Pmel T cells activated with cognate antigen in presence of rTrx; type: cell-based
Method: (FIG. 7A) Three day activated gp100 epitope reactive splenic T cells from Pmel and Pmel−Trx mouse were re-stimulated overnight with cognate antigen, and supernatant was evaluated for secreted Trx by ELISA as per protocol. N=3 **p<0.005. (FIG. 7B) Pmel T cells were labeled with CFSE and stimulated with cognate antigen gp100 for three days. The expression of Trx was then determined using flurochrome conjugated antibody by gating on the cells in different phase of division. (FIG. 7C) CFSE labeled Pmel T cells were stimulated with cognate antigen in absence or presence of rTRx at various doses. Pmel T cells activated with cognate antigen in presence of rTrx (5 μg/ml) were used at day 3 to determine the expression of Trx (FIG. 7D), iGSH (FIG. 7E), pAMPK (FIG. 7F), stemness genes using qPCR (FIG. 7G), Annexin V upregulation after 4 hr of TCR restimulation with cognate antigen hgp100 or non-cognate ova peptide (FIG. 7H), and Glucose uptake using 2NBDG (FIG. 7I). N=2-3. Numerical values=MFI. *p<0.05, **p<0.01. (FIG. 7J) Melanoma epitope gp100 reactive T cells obtained from Pmel TCR transgenic mouse were activated with cognate antigen either in presence or absence of recombinant thioredoxin (rTrx) for three days before being adoptively transferred to the immunocompetent C57BL/6 recipient mice with ten day subcutaneously established murine melanoma B16-F10. Tumor measurements from two different experiments where Pmel and Pmel+rTrx were transferred to 9 recipient mice was compiled for this presentation. ***p value<0.01 obtained at last time point of the tumor measurement before the experiment was terminated.
To get an insight into the mechanism that may be responsible for the ability of co-injected Pmel T cells to respond to tumor rechallenge (as in FIG. 6), it was determined if Pmel−Trx secreted Trx upon antigen restimulation. […] Further, to determine how secreted Trx would have modulated the Pmel T cells, recombinant Trx was used during antigen induced in vitro Pmel activation and compared the phenotype with untreated Pmel and Pmel−Trx T cells. […] It has also been shown recently that Trx1-mediated reduction of Cys130 and Cys174 is essential for AMPK function, and decreased Trx levels could lead to oxidation of Cys130 and Cys174 by inducing aggregation that prevents its activation and phosphorylation by AMPK kinases (Shao D et al., 2014, Cell Metab, 19(2):232-45).

NF-KB = NF-KB activity after addition of recombinant Trx; type: cell-based
murine melanoma B16-F10 = assay: Adoptive transfer of T cells activated in presence of rTrx; type: in vivo, C57BL/6 mice; conditions: gp100 reactive effector T cells generated in presence of rTrx
Method: (FIG. 7A) Three day activated gp100 epitope reactive splenic T cells from Pmel and Pmel−Trx mouse were re-stimulated overnight with cognate antigen, and supernatant was evaluated for secreted Trx by ELISA as per protocol. N=3 **p<0.005. (FIG. 7B) Pmel T cells were labeled with CFSE and stimulated with cognate antigen gp100 for three days. The expression of Trx was then determined using flurochrome conjugated antibody by gating on the cells in different phase of division. (FIG. 7C) CFSE labeled Pmel T cells were stimulated with cognate antigen in absence or presence of rTRx at various doses. Pmel T cells activated with cognate antigen in presence of rTrx (5 μg/ml) were used at day 3 to determine the expression of Trx (FIG. 7D), iGSH (FIG. 7E), pAMPK (FIG. 7F), stemness genes using qPCR (FIG. 7G), Annexin V upregulation after 4 hr of TCR restimulation with cognate antigen hgp100 or non-cognate ova peptide (FIG. 7H), and Glucose uptake using 2NBDG (FIG. 7I). N=2-3. Numerical values=MFI. *p<0.05, **p<0.01. […]
Further, it was determined if the strategy to activate and expand in presence of rTrx ex vivo would render tumor epitope reactive T cells with robust anti-tumor property.

Splenic T cells [2] = assay: Homeostatic proliferation of IL2 or IL2+IL4 activated T cells in Rag1−/− recipients; type: in vivo, C57BL/6 mice; conditions: IL2+IL4 vs IL2, tracked at day 28
Source text: Splenic T cells from C57BL/6 mice on Thy1.1 or Thy1.2 background were activated for three days either in 1L2 or IL2+IL4 respectively, and mixed in 1:1 ratio before injecting i.v. in Rag1−/− recipients to determine any differences in homeostatic proliferation. Transferred T cells were tracked at day 28 by staining Thy1.1 and Th1.2 cells in various lymphoid and non-lymphoid tissues.

[3] = TCR re-stimulation with cognate antigen (hgp100), cultured three days with recombinant Trx

O=C(O)CCC(=O)C(=O)O [α-ketoglutarate]
T cell phenotype (CD62L and CD44 cell surface expression) (Splenic T cells [1]): renders Tscm phenotype

B1: rTrx: recombinant thioredoxin added during ex vivo T cell activation (protein, UniProt P10599 2-105, looked up)
Thioredoxin: VKQIESKTAFQEALDAAGDKLVVVDFSATWCGPCKMIKPFFHSLSEKYSNVIFLEVDVDDCQDVASECEVKCMPTFQFFKKGQKVGEFSGANKEKLEATINELV
toxicity / cell division during T cell activation (Pmel T cells; CFSE labeled Pmel T cells, rTrx at various doses): non-toxic
cell death as measured by Annexin V levels (Pmel T cells; [3]): reduced cell death
glucose uptake (2NBDG) (Pmel T cells; [3]): reduced
pAMPK (Pmel T cells; compared to activated Pmel T cells): increased pAMPK
Lef1 gene expression (qPCR, stemness genes) (Pmel T cells; rTrx 5 μg/ml, day 3): up-regulation
Tcf7 gene expression (qPCR, stemness genes) (Pmel T cells; rTrx 5 μg/ml, day 3): up-regulation
expression of Trx (Pmel T cells; rTrx 5 μg/ml, day 3): increased expression
expression of iGSH (Pmel T cells; rTrx 5 μg/ml, day 3): increased expression
NF-KB activity (NF-KB): decrease
survival of transferred T cells in vivo (murine melanoma B16-F10): survive longer
tumor control (murine melanoma B16-F10): much improved tumor control

B2: IL4: cytokine used with IL2 to pretreat T cells for three days (protein, UniProt P05112 25-153, looked up)
Interleukin-4: HKCDITLQEIIKTLNSLTEQKTLCTELTVTDIFAASKNTTEKETFCRAATVLRQFYSHHEKDTRCLGATAQQFHRHKQLIRFLKRLDRNLWGLAGLNSCPVKEANQSTLENFLERLKTIMREKYSKCSS
persistence of pretreated T cells in vivo (Splenic T cells [2]): improved persistence
